Where a chain is given by its changes, count along the chain named. One block for each binder: values may come before it.
Key:
CRH (CT-Biotin) [1] = molecular target: T1, CRH (CT-Biotin) (human and mouse (same sequence), biotin on an added C-terminal K (CRH-K-Biotin)); assay: ELISA, biotinylated CRH on streptavidin plate
T1 construct: also called Peptide 4 (CRH-Biotin)
T1 peptide: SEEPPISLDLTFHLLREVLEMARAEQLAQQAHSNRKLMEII
Procedure: (§1) Streptavidin (Thermo, Cat: 21125) was diluted in PBS to a concentration of 2 μg/ml. 100 μl of diluted streptavidin was added per well to ELISA microplates, and the plates were incubated overnight at 4° C. […] 100 μL of 3,3′,5,5′-tetramethylbenzidine (TMB) substrate (Biopanda, Cat: TMB-S-003) was added, and the plates were incubated at room temperature for 15 minutes. 100 μL of ELISA stopping solution (Solarbio, Cat #: C1058) was added to terminate the reaction, and the optical density at 450 nm (OD450 nm) was determined by an ELISA plate reader (Molecular Devices, Spectra max 384 plus).

[2] = molecular target: T2, corticotropin-releasing hormone (CRH) peptide (human and mouse (same sequence), not fully specified); assay: cell-based or functional assay
T2 peptide: T1 peptide

[3] = molecular target: T3, corticotropin-releasing hormone (CRH) peptide (human and mouse, not fully specified); assay: cell-based or functional assay
T3 peptide: T1 peptide

CRH (CT-Biotin) [4] = molecular target: T4, CRH (CT-Biotin) (human and mouse, biotin on the added C-terminal K (-K-Biotin)); assay: ELISA, C-terminally biotinylated CRH on streptavidin-coated plate
T4 construct: also called Peptide 4 (CRH-Biotin); C-terminally biotinylated corticotropin-releasing hormone
T4 peptide: T1 peptide
Procedure: as §1

CRH (NT-Biotin) = molecular target: T5, CRH (NT-Biotin) (human and mouse, not fully specified; biotin at the N-terminus); assay: ELISA, N-terminally biotinylated CRH on streptavidin-coated plate
T5 construct: also called Biotin-CRH; N-terminally biotinylated corticotropin-releasing hormone
T5 peptide: T1 peptide
Procedure: as §1

EC50 (CRH (CT-Biotin) [1]): 0.013 nM
hCRHR1 Luciferase Reporter Assay IC50 [2]: 1.35 nM
mCrhr1 Luciferase Reporter Assay IC50 [2]: 4.67 nM
B1: PR302055 (antibody, human IgG1, kappa, V domains shown)
VH: EMQLVESGGGLVQPGGSLKLSCAASGFTFSNYWMNWVRQASGKGLEWVAEIRLKSNNYATHYAESVKGRFTISRDDSKSTVYLQMNSLKTEDTAVYYCTVGTLVYWGQGTLVTVSS
VL: DIQLTQSPSSLSASVGDRVTITCRASQSVSTSTYNYMHWFQQKPGKAPKLLIKFASNLESGVPSRFSGSGSGTDFTLTISSLQPEDTATYYCQHSWEIPYTFGQGTKLEIKR
notes: humanized variant of PR301777

hCRHR1 Reporter IC50 [3]: 0.46 nM
EC50 (CRH (CT-Biotin) [4]): 0.011 nM
EC50 (CRH (NT-Biotin)): 0.018 nM
B2: PR301788 (antibody, human IgG1, kappa, V domains shown)
VH: EMKLEESGGGLVQPGGSMKLSCVASGFTFSNYWMNWVRQSPEKGLEWVAEIRLKSNNYATHYAESVKGRFTISRDDSKSSVYLQMNNLRAEDTGIYYCTIGTLVYWGQGTLVTVSA
VL: DIVLTQSPASLAVSLGQRATISCRASQSVSTSTYNYMHWFQQKPGQPPKLLIKFASNLESGVPARFSGSGSGTDFTLNIHPVEEEDTATFYCQHSWEIPYTFGGGTKLEIKR
notes: Mouse variable domains, expressed recombinantly with human IgG1 wildtype Fc; also called Series 5 mAb

hCRHR1 Reporter IC50 [3]: 1.04 nM
EC50 (CRH (CT-Biotin) [4]): 0.013 nM
EC50 (CRH (NT-Biotin)): 0.021 nM
B3: PR301803 (antibody, human IgG1, kappa, V domains shown)
VH: B2 VH with M2V, S30N, V66L, I100V
VL: B2 VL with A12V, F40Y
notes: as for B2

hCRHR1 Reporter IC50 [3]: 0.609 nM
EC50 (CRH (CT-Biotin) [4]): 0.038 nM
EC50 (CRH (NT-Biotin)): 0.027 nM
B4: PR301777 (antibody, human IgG1, kappa, V domains shown)
VH: B2 VH with S80G, R89G, I100V
VL: B2 VL
notes: as for B2

hCRHR1 Reporter IC50 [3]: 35.6 nM
EC50 (CRH (CT-Biotin) [4]): 0.037 nM
EC50 (CRH (NT-Biotin)): 0.094 nM
B5: PR301306 (antibody, human IgG1, kappa, V domains shown)
VH: B2 VH with M2V, H61L, I100R
VL: B2 VL with T33D, F40Y, F54Y, F90Y
notes: Mouse variable domains, expressed recombinantly with human IgG1 wildtype Fc; also called Series 3 mAb

hCRHR1 Reporter IC50 [3]: 0.055 nM
EC50 (CRH (CT-Biotin) [4]): 0.019 nM
EC50 (CRH (NT-Biotin)): 0.017 nM
B6: PR301790 (antibody, human IgG1, kappa, V domains shown)
VH: B2 VH
VL: B2 VL with T33S, F40Y
notes: as for B2

hCRHR1 Reporter IC50 [3]: 4.53 nM
EC50 (CRH (CT-Biotin) [4]): 0.006 nM
EC50 (CRH (NT-Biotin)): 0.013 nM
B7: PR301806 (antibody, human IgG1, kappa, V domains shown)
VH: QVQLQQPGAELVKPGTSVKMSCKASGYTFTSYWMHWVKQRPGQGLEWIGDIYPGSDSTNYNEKFKSKASLTVDTSSSTAYMQLSSLTSEDSAVYYCARSITTTTFWYFDVWGAGTTVTVSS
VL: DVLMTQTPLSLPVSLGDQASISCRSSQSFVYSNGNTYLQWYLQKPGQSPKLLIYKVSNRFSGVPDRFSGSGSGTDFTLKISRVEAEDLGVYYCFQGSHVPPTFGAGTKLELKR
notes: Mouse variable domains, expressed recombinantly with human IgG1 wildtype Fc; also called Series 6 mAb

hCRHR1 Reporter IC50 [3]: 0.498 nM
EC50 (CRH (CT-Biotin) [4]): 0.016 nM
EC50 (CRH (NT-Biotin)): 0.019 nM
B8: PR302324 (antibody, human IgG1, kappa, V domains shown)
VH: EVQLQQSGPELVKPGASVKMSCKASGYTFTDYFMKWVKQSHGGSLEWIGVISPNNGDTFYNQKFKGKATLTVDKSSSTAFMQLNSLTSEDSAVYSCARGTDRALFAYWGQGTLVTVSA
VL: B7 VL with F29I, Y31H, N33D, Q39E, K44R, E84G, V99I, P101W, A105G, L111V
notes: Mouse variable domains, expressed recombinantly with human IgG1 wildtype Fc; also called Series 10 mAb

hCRHR1 Reporter IC50 [3]: 61.1 nM
EC50 (CRH (CT-Biotin) [4]): 0.03 nM
EC50 (CRH (NT-Biotin)): 0.938 nM
B9: PR301780 (antibody, human IgG1, kappa, V domains shown)
VH: QIQLVQSGPELKKPGETVKISCKASGYTFTNFGLNWVKQAPGKGLKWMGWINTYTGEPTYTDDFKGRFAFSLETSASTAYLQINNLKKEDTATYFCARGTYRDDGAWFAYWGQGTLVTVSA
VL: B7 VL with S28I, F29I, Y31H, Q39E, Y92H, P101W, A105G, L111I
notes: Mouse variable domains, expressed recombinantly with human IgG1 wildtype Fc; also called Series 7 mAb

hCRHR1 Reporter IC50 [3]: 0.503 nM
EC50 (CRH (CT-Biotin) [4]): 0.017 nM
EC50 (CRH (NT-Biotin)): 0.023 nM
B10: PR302341 (antibody, human IgG1, kappa, V domains shown)
VH: B8 VH with G43E, S52N, T58I, T115A
VL: DVLMTQTPLSLPVSLGDQASISCRSGQSIVHSDGNTYLEWYLQRPGQSPRLLIYKVSNRFSGVPDRFSGSGSGTDFTLKISRVGAEDLGIYYCFQGSHIPWTFGGGTKLEVKR
notes: as for B8

hCRHR1 Reporter IC50 [3]: 1.37 nM
EC50 (CRH (CT-Biotin) [4]): ~0.011 nM
EC50 (CRH (NT-Biotin)): 0.025 nM
B11: PR302312 (antibody, human IgG1, kappa, V domains shown)
VH: B8 VH with V37M, G43K, S52N, K63N, F80Y, S95Y, A97T, D101A
VL: B10 VL with G26S, R50K, I90V, I99V
notes: as for B8
